B1: G-patch domain and KOW motifs-containing protein (Homo sapiens), Q92917 (parent)
chain: MADSKEGVLPLTAASTAPISFGFTRTSARRRLADSGDGAGPSPEEKDFLKTVEGRELQSVKPQEAPKELVIPLIQNGHRRQPPARPPGPSTDTGALADGVVSQAVKELIAESKKSLEERENAGVDPTLAIPMIQKGCTPSGEGADSEPRAETVPEEANYEAVPVEAYGLAMLRGMGWKPGEGIGRTFNQVVKPRVNSLRPKGLGLGANLTEAQALTPTGPSRMPRPDEEQEKDKEDQPQGLVPGGAVVVLSGPHRGLYGKVEGLDPDNVRAMVRLAVGSRVVTVSEYYLRPVSQQEFDKNTLDLRQQNGTASSRKTLWNQELYIQQDNSERKRKHLPDRQDGPAAKSEKAAPRSQHWLHRDLRVRFVDNMYKGGQYYNTKMIIEDVLSPDTCVCRTDEGRVLEGLREDMLETLVPKAEGDRVMVVLGPQTGRVGHLLSRDRARSRALVQLPRENQVVELHYDAICQYMGPSDTDDD
B2: Methylthioribulose-1-phosphate dehydratase (Homo sapiens), Q96GX9 (parent)
chain: MSGCDAREGDCCSRRCGAQDKEHPRYLIPELCKQFYHLGWVTGTGGGISLKHGDEIYIAPSGVQKERIQPEDMFVCDINEKDISGPSPSKKLKKSQCTPLFMNAYTMRGAGAVIHTHSKAAVMATLLFPGREFKITHQEMIKGIKKCTSGGYYRYDDMLVVPIIENTPEEKDLKDRMAHAMNEYPDSCAVLVRRHGVYVWGETWEKAKTMCECYDYLFDIAVSMKKVGLDPSQLPVGENGIV
partner: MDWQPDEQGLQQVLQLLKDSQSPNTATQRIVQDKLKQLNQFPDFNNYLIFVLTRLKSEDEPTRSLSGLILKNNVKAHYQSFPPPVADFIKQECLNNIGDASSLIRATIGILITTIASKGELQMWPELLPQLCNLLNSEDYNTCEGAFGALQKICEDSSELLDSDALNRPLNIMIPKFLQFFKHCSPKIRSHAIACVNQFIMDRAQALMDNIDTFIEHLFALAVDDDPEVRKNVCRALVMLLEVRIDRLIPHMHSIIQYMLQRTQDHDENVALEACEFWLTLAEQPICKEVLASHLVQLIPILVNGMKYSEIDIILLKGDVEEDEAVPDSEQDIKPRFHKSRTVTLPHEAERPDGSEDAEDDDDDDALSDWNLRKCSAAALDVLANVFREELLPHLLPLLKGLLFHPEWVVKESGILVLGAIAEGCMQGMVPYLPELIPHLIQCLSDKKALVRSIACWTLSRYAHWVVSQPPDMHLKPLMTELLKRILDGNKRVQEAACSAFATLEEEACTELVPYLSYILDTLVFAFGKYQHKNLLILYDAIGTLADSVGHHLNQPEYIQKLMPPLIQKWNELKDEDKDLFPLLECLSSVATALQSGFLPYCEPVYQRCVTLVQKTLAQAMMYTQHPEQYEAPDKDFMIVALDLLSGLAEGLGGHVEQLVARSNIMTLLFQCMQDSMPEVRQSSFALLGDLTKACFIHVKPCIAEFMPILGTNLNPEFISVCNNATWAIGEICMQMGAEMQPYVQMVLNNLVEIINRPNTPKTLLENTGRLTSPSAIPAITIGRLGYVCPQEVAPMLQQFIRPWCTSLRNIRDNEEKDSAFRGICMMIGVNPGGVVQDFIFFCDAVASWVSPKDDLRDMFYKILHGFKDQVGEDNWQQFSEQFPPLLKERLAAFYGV
B3: Keratin, type I cytoskeletal 20 (Homo sapiens), P35900 (parent)
chain: MDFSRRSFHRSLSSSLQAPVVSTVGMQRLGTTPSVYGGAGGRGIRISNSRHTVNYGSDLTGGGDLFVGNEKMAMQNLNDRLASYLEKVRTLEQSNSKLEVQIKQWYETNAPRAGRDYSAYYRQIEELRSQIKDAQLQNARCVLQIDNAKLAAEDFRLKYETERGIRLTVEADLQGLNKVFDDLTLHKTDLEIQIEELNKDLALLKKEHQEEVDGLHKHLGNTVNVEVDAAPGLNLGVIMNEMRQKYEVMAQKNLQEAKEQFERQTAVLQQQVTVNTEELKGTEVQLTELRRTSQSLEIELQSHLSMKESLEHTLEETKARYSSQLANLQSLLSSLEAQLMQIRSNMERQNNEYHILLDIKTRLEQEIATYRRLLEGEDVKTTEYQLSTLEERDIKKTRKIKTVVQEVVDGKVVSSEVKEVEENI
partner: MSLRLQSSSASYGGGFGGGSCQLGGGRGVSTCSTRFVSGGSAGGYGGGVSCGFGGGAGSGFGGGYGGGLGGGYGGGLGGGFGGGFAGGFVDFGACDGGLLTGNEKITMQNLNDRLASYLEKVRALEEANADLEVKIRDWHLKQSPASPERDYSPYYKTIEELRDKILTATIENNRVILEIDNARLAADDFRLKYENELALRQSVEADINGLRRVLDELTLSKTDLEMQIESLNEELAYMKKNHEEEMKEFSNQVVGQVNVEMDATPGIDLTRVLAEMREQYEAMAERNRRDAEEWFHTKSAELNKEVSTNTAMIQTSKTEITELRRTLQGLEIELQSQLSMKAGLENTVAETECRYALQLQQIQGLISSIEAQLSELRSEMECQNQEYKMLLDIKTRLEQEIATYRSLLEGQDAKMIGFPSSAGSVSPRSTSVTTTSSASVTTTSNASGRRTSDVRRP
B4: MYG1 exonuclease (Homo sapiens), Q9HB07 (parent)
chain: MGHRFLRGLLTLLLPPPPLYTRHRMLGPESVPPPKRSRSKLMAPPRIGTHNGTFHCDEALACALLRLLPEYRDAEIVRTRDPEKLASCDIVVDVGGEYDPRRHRYDHHQRSFTETMSSLSPGKPWQTKLSSAGLIYLHFGHKLLAQLLGTSEEDSMVGTLYDKMYENFVEEVDAVDNGISQWAEGEPRYALTTTLSARVARLNPTWNHPDQDTEAGFKRAMDLVQEEFLQRLDFYQHSWLPARALVEEALAQRFQVDPSGEIVELAKGACPWKEHLYHLESGLSPPVAIFFVIYTDQAGQWRIQCVPKEPHSFQSRLPLPEPWRGLRDEALDQVSGIPGCIFVHASGFIGGHRTREGALSMARATLAQRSYLPQIS
B5: Zinc finger protein 473 (Homo sapiens), Q8WTR7 (parent)
chain: MAEEFVTLKDVGMDFTLGDWEQLGLEQGDTFWDTALDNCQDLFLLDPPRPNLTSHPDGSEDLEPLAGGSPEATSPDVTETKNSPLMEDFFEEGFSQEIIEMLSKDGFWNSNFGEACIEDTWLDSLLGDPESLLRSDIATNGESPTECKSHELKRGLSPVSTVSTGEDSMVHNVSEKTLTPAKSKEYRGEFFSYSDHSQQDSVQEGEKPYQCSECGKSFSGSYRLTQHWITHTREKPTVHQECEQGFDRNASLSVYPKTHTGYKFYVCNEYGTTFSQSTYLWHQKTHTGEKPCKSQDSDHPPSHDTQPGEHQKTHTDSKSYNCNECGKAFTRIFHLTRHQKIHTRKRYECSKCQATFNLRKHLIQHQKTHAAKTTSECQECGKIFRHSSLLIEHQALHAGEEPYKCNERGKSFRHNSTLKIHQRVHSGEKPYKCSECGKAFHRHTHLNEHRRIHTGYRPHKCQECVRSFSRPSHLMRHQAIHTAEKPYSCAECKETFSDNNRLVQHQKMHTVKTPYECQECGERFICGSTLKCHESVHAREKQGFFVSGKILDQNPEQKEKCFKCNKCEKTFSCSKYLTQHERIHTRGVKPFECDQCGKAFGQSTRLIHHQRIHSRVRLYKWGEQGKAISSASLIKLQSFHTKEHPFKCNECGKTFSHSAHLSKHQLIHAGENPFKCSKCDRVFTQRNYLVQHERTHARKKPLVCNECGKTFRQSSCLSKHQRIHSGEKPYVCDYCGKAFGLSAELVRHQRIHTGEKPYVCQECGKAFTQSSCLSIHRRVHTGEKPYRCGECGKAFAQKANLTQHQRIHTGEKPYSCNVCGKAFVLSAHLNQHLRVHTQETLYQCQRCQKAFRCHSSLSRHQRVHNKQQYCL
B6: Proteasome subunit beta type-1 (Homo sapiens), P20618 (parent)
chain: MLSSTAMYSAPGRDLGMEPHRAAGPLQLRFSPYVFNGGTILAIAGEDFAIVASDTRLSEGFSIHTRDSPKCYKLTDKTVIGCSGFHGDCLTLTKIIEARLKMYKHSNNKAMTTGAIAAMLSTILYSRRFFPYYVYNIIGGLDEEGKGAVYSFDPVGSYQRDSFKAGGSASAMLQPLLDNQVGFKNMQNVEHVPLSLDRAMRLVKDVFISAAERDVYTGDALRICIVTKEGIREETVSLRKD
B7: Protein LDOC1 (Homo sapiens), O95751 (parent)
chain: MVDELVLLLHALLMRHRALSIENSQLMEQLRLLVCERASLLRQVRPPSCPVPFPETFNGESSRLPEFIVQTASYMLVNENRFCNDAMKVAFLISLLTGEAEEWVVPYIEMDSPILGDYRAFLDEMKQCFGWDDDEDDDDEEEEDDY
partner: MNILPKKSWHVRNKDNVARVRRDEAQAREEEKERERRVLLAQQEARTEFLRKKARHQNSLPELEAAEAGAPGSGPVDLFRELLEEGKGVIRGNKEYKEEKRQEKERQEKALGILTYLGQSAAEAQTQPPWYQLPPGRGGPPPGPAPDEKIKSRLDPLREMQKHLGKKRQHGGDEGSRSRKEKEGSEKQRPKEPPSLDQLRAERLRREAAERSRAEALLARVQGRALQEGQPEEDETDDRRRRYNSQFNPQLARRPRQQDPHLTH

Variants of: B1
Conditions: with tri23_human TRIM23, P36406
Sequence of tri23_human TRIM23, P36406 (P36406 whole entry): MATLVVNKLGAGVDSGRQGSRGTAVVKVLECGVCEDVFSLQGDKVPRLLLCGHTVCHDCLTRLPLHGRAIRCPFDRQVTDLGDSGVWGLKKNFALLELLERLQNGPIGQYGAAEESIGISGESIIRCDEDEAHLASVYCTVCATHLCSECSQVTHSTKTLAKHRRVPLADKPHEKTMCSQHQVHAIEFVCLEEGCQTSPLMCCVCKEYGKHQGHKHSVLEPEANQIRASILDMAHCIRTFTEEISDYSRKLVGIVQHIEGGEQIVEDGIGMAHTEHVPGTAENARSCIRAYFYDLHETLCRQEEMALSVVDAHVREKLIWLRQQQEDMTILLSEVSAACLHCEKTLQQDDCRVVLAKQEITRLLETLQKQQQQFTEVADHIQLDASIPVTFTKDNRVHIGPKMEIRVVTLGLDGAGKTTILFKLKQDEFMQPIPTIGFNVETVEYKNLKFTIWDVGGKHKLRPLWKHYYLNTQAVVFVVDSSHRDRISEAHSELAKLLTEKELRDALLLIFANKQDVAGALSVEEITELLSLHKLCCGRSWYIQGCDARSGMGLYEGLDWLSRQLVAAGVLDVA

| Variant | effect of a mutation on the interaction |
| --- | --- |
| V393A | with no effect |
| A129T | with no effect |

Variants of: B1
Conditions: with traf2_human TRAF2, Q12933
Sequence of traf2_human TRAF2, Q12933 (Q12933 whole entry): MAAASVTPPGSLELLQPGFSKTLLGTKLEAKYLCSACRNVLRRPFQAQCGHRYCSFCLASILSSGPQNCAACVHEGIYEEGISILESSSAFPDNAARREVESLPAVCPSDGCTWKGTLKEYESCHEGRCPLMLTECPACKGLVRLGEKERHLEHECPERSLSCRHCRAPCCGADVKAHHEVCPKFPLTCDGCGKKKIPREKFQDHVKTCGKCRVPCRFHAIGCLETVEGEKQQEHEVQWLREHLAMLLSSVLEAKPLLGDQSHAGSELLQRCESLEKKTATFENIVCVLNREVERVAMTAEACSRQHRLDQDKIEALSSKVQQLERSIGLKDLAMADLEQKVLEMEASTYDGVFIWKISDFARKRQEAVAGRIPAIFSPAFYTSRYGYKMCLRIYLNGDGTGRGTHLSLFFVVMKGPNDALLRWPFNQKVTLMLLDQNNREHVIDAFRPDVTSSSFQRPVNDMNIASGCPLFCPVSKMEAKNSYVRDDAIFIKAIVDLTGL

| Variant | effect of a mutation on the interaction |
| --- | --- |
| V393A | with no effect |
| A129T | with no effect |

Variants of: B2
Conditions: with tnpo2_human TNPO2, O14787

| Variant | effect of a mutation on the interaction |
| --- | --- |
| G111A | with no effect |
| M181V | disrupting interaction strength |

Variants of: B3
Conditions: with KRT13, P13646

| Variant | effect of a mutation on the interaction |
| --- | --- |
| S129N | with no effect |
| S309Y | with no effect |

Variants of: B4
Conditions: with atrap_human AGTRAP

| Variant | effect of a mutation on the interaction |
| --- | --- |
| R243Q | with no effect |
| R188Q | with no effect |

Variants of: B5
Conditions: with gpt2l_human GPATCH2L

| Variant | effect of a mutation on the interaction |
| --- | --- |
| S535N | with no effect |
| R605Q | with no effect |
| S662A | with no effect |
| S59G | with no effect |
| T654I | with no effect |
| R223C | with no effect |
| E309G | with no effect |
| Y456H | with no effect |

Variants of: B5
Conditions: with zn792_human ZNF792, Q3KQV3
Sequence of zn792_human ZNF792, Q3KQV3 (Q3KQV3 whole entry): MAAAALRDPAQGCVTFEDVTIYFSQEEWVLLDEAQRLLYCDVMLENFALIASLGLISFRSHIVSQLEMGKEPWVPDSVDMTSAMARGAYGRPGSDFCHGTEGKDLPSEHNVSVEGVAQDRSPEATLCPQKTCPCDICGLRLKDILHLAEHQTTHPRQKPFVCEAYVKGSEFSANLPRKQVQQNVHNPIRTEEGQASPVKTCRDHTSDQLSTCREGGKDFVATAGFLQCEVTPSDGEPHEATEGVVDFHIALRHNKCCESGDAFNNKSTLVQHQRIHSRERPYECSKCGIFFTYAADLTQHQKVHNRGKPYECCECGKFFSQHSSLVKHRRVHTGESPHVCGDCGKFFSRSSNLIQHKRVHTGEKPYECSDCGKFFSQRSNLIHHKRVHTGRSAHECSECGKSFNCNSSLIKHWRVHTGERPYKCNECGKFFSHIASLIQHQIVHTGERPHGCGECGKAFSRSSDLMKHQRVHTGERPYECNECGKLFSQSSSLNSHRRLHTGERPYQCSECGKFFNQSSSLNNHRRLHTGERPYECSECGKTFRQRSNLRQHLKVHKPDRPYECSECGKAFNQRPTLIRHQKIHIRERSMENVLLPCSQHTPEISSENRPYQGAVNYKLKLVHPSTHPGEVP

| Variant | effect of a mutation on the interaction |
| --- | --- |
| S535N | with no effect |
| R605Q | with no effect |
| T164M | with no effect |
| S662A | with no effect |
| R223C | with no effect |
| N82S | with no effect |
| E309G | with no effect |
| Y456H | with no effect |

Variants of: B5
Conditions: with tri41_human TRIM41, Q8WV44

| Variant | effect of a mutation on the interaction |
| --- | --- |
| S535N | with no effect |
| T164M | with no effect |
| S662A | with no effect |
| S59G | with no effect |
| T654I | with no effect |
| R223C | with no effect |
| N82S | with no effect |
| E309G | with no effect |
| Y456H | with no effect |

Variants of: B5
Conditions: with aen_human AEN

| Variant | effect of a mutation on the interaction |
| --- | --- |
| S535N | with no effect |
| R605Q | with no effect |
| T164M | with no effect |
| S662A | with no effect |
| S59G | with no effect |
| R223C | with no effect |
| N82S | with no effect |
| E309G | with no effect |
| Y456H | with no effect |

Variants of: B5
Conditions: with ntf2_human NUTF2, P61970
Sequence of ntf2_human NUTF2, P61970 (P61970 whole entry): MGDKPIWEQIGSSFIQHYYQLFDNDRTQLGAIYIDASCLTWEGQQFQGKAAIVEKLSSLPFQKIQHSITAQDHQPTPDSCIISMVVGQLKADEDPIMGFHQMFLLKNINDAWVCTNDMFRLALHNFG

| Variant | effect of a mutation on the interaction |
| --- | --- |
| S59G | with no effect |

Variants of: B5
Conditions: with zn792_human ZNF792, Q3KQV3
Remark: another data set of the same source

| Variant | effect of a mutation on the interaction |
| --- | --- |
| S59G | with no effect |
| T654I | with no effect |

Variants of: B5
Conditions: with aen_human AEN
Remark: another data set of the same source

| Variant | effect of a mutation on the interaction |
| --- | --- |
| T654I | with no effect |

Variants of: B6
Conditions: with KRT15, P19012
Sequence of KRT15, P19012 (P19012 whole entry): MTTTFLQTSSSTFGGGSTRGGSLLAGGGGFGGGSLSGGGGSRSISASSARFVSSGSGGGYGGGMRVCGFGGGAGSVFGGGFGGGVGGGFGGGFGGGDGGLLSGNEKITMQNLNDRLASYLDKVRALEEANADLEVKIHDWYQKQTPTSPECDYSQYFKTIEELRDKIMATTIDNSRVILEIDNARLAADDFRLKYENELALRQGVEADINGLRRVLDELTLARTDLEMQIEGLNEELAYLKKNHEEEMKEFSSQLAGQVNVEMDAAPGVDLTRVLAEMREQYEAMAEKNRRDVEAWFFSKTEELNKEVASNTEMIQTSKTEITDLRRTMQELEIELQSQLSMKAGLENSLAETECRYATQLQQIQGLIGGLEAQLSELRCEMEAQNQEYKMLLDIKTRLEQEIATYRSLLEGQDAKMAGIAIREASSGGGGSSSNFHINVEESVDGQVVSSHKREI

| Variant | effect of a mutation on the interaction |
| --- | --- |
| P11A | with no effect |

Variants of: B6
Conditions: with traf1_human TRAF1, Q13077
Sequence of traf1_human TRAF1, Q13077 (Q13077 whole entry): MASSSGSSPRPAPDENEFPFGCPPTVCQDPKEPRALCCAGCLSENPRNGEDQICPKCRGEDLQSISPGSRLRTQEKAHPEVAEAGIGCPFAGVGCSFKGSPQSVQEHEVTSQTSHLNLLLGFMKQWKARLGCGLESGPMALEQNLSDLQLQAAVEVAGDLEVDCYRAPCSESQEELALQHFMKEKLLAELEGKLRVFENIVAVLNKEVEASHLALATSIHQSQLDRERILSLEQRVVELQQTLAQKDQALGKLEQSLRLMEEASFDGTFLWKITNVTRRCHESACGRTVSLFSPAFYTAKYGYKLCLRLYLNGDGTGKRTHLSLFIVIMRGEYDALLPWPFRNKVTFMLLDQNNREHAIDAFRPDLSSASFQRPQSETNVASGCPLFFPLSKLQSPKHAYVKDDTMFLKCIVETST

| Variant | effect of a mutation on the interaction |
| --- | --- |
| P11A | with no effect |

Variants of: B7
Conditions: with leng1_human LENG1, Q96BZ8

| Variant | effect of a mutation on the interaction |
| --- | --- |
| L12H | disrupting interaction strength |

Source: IntAct's records for PubMed 31515488
